Substitutions are numbered along the chain they refer to.

We go through five molecules from patent publication CN108239149A (NANJING LEGEND BIOTECHNOLOGY CO LTD, dated 2018).

The target of experiment [1] is 人PD-L1 expressed on cells (表达PD-L1的CHO细胞) (human) (UniProt Q9NZQ7). Kind of experiment: cell-based or functional assay.
Experiment [2] addresses T1, 融合至人IgG1 Fc段的人PD-L1胞外结构域的重组蛋白PD-L1-Fc (GenScript, Z03371) (human, UniProt Q9NZQ7 19-238, biotin-labelled in the PD-1 competition ELISA (site not stated)).
T1 construct: extracellular domain; Bought reagent (GenScript Z03371); also called 重组PD-L1-Fc; 生物素标记的PD-L1-Fc; not shown: Human IgG1 Fc segment
Description: indirect ELISA, PD-L1-Fc coated at 0.5 μg/ml, antibody titrated.

In experiment [3] the target is T1, 融合至人IgG1 Fc段的人PD-L1胞外结构域的重组蛋白PD-L1-Fc …. Description: competition ELISA: antibody titrated against biotinylated PD-L1-Fc binding to coated human PD-1.

T1 sequence (Q9NZQ7 19-238 limits assumed, one chain of several): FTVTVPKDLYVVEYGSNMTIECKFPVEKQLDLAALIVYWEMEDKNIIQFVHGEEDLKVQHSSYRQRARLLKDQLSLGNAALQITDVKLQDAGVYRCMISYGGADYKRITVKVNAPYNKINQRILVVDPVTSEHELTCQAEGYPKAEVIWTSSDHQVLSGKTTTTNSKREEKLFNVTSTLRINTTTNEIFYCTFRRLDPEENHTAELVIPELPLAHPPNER

B1: 18B7F4G8 (antibody, V domains shown)
VH: DVQLQESGPDLVKPSQSLSLTCTVTGYSITSGYTWHWIRQFPGNKLEWMGYIHYSGSTKYNPSLKSRFSITRDTSKNQFFLQLNSMTAEDTATYYCARNSLFASWGHGTLVTVSA
VL: DIVLTQSPASLAVSLGQRATISCRASESVDTYGDSFMHWFQQKPGQPPKLLIYRASNLESGIPARFSGSGSRTDFTLTINPVEADDVATYYCQQSNEAPYTFGGGTKLEIK
notes: Mouse hybridoma clone; Detected with goat anti-mouse IgG
For B1, in experiment [1], the IL-2分泌 (混合淋巴细胞反应) EC50 is 0.359 µg/mL and the 相对光单位(RLU) NFAT报告细胞 EC50 turned out to be 0.359 µg/mL. Also, the EC50 in experiment [2] is 0.00531 µg/mL.

B2: 42G2D7C3 (antibody, V domains shown)
VH: DVQLLESGPGLVKPSQSLSLTCSVTGYSITSGYYWNWIRQFPGNNLEWMGSINYDGSNDYNPSLQDRISITRDTSKNQFFLKLNSVTTEDTATYYCARRLDYWGQGTTLIVSS
VL: QIVLTQSPAIMSASPGEKVTISCSASSFINYMYWYQQKPGSSPKPWILRTSTLASGVPARFSGSGSGTSYSLTISSMEAEDAATYYCQQYHSYPLTFGAGTKLELK
notes: Made recombinantly as variable region + constant region; also called 42G2D7D3
Turning to B2, in experiment [1], the IL-2分泌 (混合淋巴细胞反应) EC50 stood at 0.235 µg/mL and the 相对光单位(RLU) NFAT报告细胞 EC50 was determined as 1.17 µg/mL. The molecule also came in with an EC50 in experiment [2] of 0.00458 µg/mL. For the same molecule, the IC50 in experiment [3] was 0.48 µg/mL.

B3: 53C1F3D4 (antibody, V domains shown)
VH: QVQLQQSGNELARPGASVRLSCKASGYIFTGYGITWVRQRPGQGLEWIGEIFPRRVNTYYSEKFKGRATLTADISSSTAYMELRSLTSEDSAVYFCARDYDPYFALDYWGQGTSVTVSS
VL: DIVMTQSHKFMSTSVGDRVSITCKASQDVSTAVDWYQQKPGQSPKLLIYSASYRYTGVPDRFTGSGSGTAFTFTISGEQAEDLAVYYCQQHYSIPFTFGGGTKLEIK
notes: Mouse hybridoma clone; Made recombinantly as variable region + constant region in HEK293-6E
In experiment [1], B3 came in with an IL-2分泌 (混合淋巴细胞反应) EC50 of 0.0947 µg/mL and a 相对光单位(RLU) NFAT报告细胞 EC50 of 0.576 µg/mL. In addition, a half-maximal effect in experiment [2] (EC50) was put at 0.00467 µg/mL. For the same molecule, the IC50 in experiment [3] stood at 0.32 µg/mL.

B4: 51F3D2G4 (antibody, V domains shown)
VH: QVQLQQSGAELARPGASVRLSCKASGYIFTGYGISWVKQRTGQGLEWIGEIFPRTANTYFNEKFKGKATLTADKSSSTAYMELRSLTSEDSAVYFCARDYDPYYALDYWGQGTSVTVSS
VL: B3 VL with S20T, G77S, I94V
notes: as for B3
In experiment [1], B4 gave an IL-2分泌 (混合淋巴细胞反应) EC50 of 0.209 µg/mL and a 相对光单位(RLU) NFAT报告细胞 EC50 of 0.883 µg/mL. In experiment [2], this molecule yielded an EC50 of 0.0063 µg/mL. The same molecule had an IC50 in experiment [3] of 0.4 µg/mL.

B5: 29A8H8C7 (antibody, V domains shown)
VH: DVQLQGSGPGLVKPSQSLSLTCTVTGYSITSDFAWDWIRQFPGNKLEWMGHIRFSGTTSYNPSLKSRISITRDTSKNQFFLQLNSVTSEDTATYYCARSTLITKGFFDYWGQGTTLTVSS
VL: DIVMTQSHKFMSTSVGGRVSITCKASQDVSPAVAWYQQKPGQSPKLLIYWASTRHTGVPDRFTGSGSGTDFTLTISSVQTEDLALYYCQQHYSTPWTFGGGTKLEIK
notes: as for B3
In experiment [1], B5 displayed an IL-2分泌 (混合淋巴细胞反应) EC50 of 0.101 µg/mL and a 相对光单位(RLU) NFAT报告细胞 EC50 of 0.751 µg/mL. In addition, the EC50 in experiment [2] is 0.00498 µg/mL. The IC50 in experiment [3] stood at 0.39 µg/mL.
